Measurements from patent publication US20180185504A1 (Regeneron, published 2018).

T1: human PRLR on cells (endogenous on T47D, T47D#11, MCF7); introduced in HEK293/hPRLR/STAT5-Luc, 293/hPRLR, … (human, UniProt P16471 25-622)
T1 construct: no tag is stated for these lines; also called prolactin receptor
T1 sequence: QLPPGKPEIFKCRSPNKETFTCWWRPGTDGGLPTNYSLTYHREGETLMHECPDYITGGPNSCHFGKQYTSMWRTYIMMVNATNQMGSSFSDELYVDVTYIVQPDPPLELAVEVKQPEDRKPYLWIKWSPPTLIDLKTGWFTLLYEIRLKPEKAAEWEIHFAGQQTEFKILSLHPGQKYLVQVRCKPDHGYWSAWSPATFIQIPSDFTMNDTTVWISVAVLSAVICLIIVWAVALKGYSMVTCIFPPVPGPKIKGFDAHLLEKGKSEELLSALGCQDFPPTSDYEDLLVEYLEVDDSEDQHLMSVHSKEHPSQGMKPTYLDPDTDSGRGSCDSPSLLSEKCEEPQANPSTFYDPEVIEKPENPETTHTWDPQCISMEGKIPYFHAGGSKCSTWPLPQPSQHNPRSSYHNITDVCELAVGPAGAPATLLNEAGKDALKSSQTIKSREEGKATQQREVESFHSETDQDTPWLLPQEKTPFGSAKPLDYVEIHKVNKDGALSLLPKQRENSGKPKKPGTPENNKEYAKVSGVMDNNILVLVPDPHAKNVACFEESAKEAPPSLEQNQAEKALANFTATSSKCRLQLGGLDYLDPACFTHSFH

T2: hPRLR.mmh (soluble monomeric human PRLR) (human)
T2 construct: soluble monomeric PRLR protein
T2 chain: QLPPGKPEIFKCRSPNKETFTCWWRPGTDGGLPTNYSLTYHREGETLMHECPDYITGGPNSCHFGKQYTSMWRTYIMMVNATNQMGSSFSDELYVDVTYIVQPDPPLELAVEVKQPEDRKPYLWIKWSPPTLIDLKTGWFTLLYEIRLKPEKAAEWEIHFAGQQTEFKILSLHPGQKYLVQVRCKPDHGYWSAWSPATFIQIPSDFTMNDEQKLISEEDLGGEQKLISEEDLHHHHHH

T3: monkey macaca fascicularis PRLR construct with an HA tag on HEK293/mfPRLR cells (macaca fascicularis, UniProt A0A2K5WXK1 25-619)
T3 construct: stably transfected into HEK293
T3 sequence: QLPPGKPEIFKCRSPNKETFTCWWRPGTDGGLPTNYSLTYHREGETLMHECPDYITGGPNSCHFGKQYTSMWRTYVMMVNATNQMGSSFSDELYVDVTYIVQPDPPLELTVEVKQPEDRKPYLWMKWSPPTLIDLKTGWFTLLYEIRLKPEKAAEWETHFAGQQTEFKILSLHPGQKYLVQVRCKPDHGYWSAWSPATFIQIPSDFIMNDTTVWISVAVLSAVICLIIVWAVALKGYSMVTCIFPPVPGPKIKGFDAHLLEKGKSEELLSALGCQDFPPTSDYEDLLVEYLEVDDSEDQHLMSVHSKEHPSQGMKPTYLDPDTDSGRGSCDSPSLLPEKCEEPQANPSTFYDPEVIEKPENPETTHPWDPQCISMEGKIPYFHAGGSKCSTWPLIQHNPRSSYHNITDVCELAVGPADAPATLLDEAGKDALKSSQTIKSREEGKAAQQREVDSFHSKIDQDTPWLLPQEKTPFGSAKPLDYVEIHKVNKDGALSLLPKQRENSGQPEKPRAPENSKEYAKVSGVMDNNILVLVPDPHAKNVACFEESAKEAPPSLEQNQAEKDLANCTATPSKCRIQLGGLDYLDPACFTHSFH

T4: mouse PRLR construct with an HA tag on HEK293/mPRLR cells (mouse, UniProt Q08501 20-608)
T4 construct: whole, on cells; stably transfected into HEK293
T4 sequence (looked up): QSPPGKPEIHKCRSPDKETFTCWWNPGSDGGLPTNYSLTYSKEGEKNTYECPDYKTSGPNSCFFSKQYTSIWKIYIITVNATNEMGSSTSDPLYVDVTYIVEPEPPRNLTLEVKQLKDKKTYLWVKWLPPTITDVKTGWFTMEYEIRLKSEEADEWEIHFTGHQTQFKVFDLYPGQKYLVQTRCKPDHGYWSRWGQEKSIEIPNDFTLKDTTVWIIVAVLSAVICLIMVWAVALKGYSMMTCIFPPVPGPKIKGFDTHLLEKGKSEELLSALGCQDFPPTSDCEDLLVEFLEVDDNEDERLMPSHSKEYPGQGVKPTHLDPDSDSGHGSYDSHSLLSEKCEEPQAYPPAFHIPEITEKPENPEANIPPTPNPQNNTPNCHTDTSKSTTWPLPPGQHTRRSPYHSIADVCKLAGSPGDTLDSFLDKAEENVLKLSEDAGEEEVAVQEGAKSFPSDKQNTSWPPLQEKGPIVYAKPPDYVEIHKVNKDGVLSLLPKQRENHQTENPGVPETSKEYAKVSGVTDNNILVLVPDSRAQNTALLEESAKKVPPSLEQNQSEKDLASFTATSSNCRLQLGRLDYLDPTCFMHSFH

B1: H1H6793P (antibody, human IgG1, V domains shown)
VH: EVQLVESGGGLVQPGGSLRLSCAASGFSFSIYAMSWFRQAPGKGLEWVSAINGRGDGTHYADSVKGRFTISRDNSKTTLYLQMSSLRAEDTAVYYCAKPVMSTNGFDIWGQGTMVTVSS
VL: DIQMTQSPSTLSASVGDRVTITCRASQSISSWLAWYQLKPGKAPKLLIYKASNLESGVPSRFSGSGSGTEFTLTISSLQPDDFATYYCQQYNIYWTFGQGTKVEIK
notes: human IgG1 Fc (H1H)
B2: H1H6967N (antibody, human IgG1, V domains shown)
VH: EVQLVESGGDLVHPGRSLRLSCAASGFPFDEYAMHWVRQVPGKGLEWVSGISWSNNNIGYADSVKGRFTISRDNAKNSLYLQMNSLRPEDTAFYYCAKSGIFDSWGQGTLVTVSS
VL: EIVMTQSPATLSVSPGERATLSCRASQSVSRDLAWYQQKPGQAPRLLIHGASTRATGIPARFSGSGSGAEFTLIISSLQSEDFAVYYCQQYNNWPLTFGGGTKVEIK
notes: also called H2M6967N
B3: H1H6782P (antibody, human IgG1, V domains shown)
VH: EVQLVESGGGLVQPGRSLRLSCAASGFTFDDYAMHWVRQAPGKGLEWVSGIIWNSGHIGYGDSVKGRFTISRDNAKKSLYLQMNSLRAEDTALYYCARDSGRYQSYFDYWGQGTLVTVSS
VL: DIQMTQSPSTLSASVGDRVTITCRASHIISSWLAWYQQKPGKAPKVLIFKASSLESGVPSRFSGSGSGTEFTLTISSLQPDDFATYYCQQYNTYSRTFGQGTKVEIK
notes: human IgG1 Fc (H1H)
B4: H1H6785P (antibody, human IgG1, V domains shown)
VH: EVQLVESGGGLVQPGGSLRLSCAASGFTFSSYEMNWVRQAPGKGLEWISYISSRGGTIYYADSIKGRFTIYRDNARNSLYLQMNSLRAEDTAIYYCARLSGVDIFDIWGQGTMVTVSS
VL: DIQMTQSPSSLSASVGDRVTITCRASQGISNYLAWYQQKPGKVPKLLIYFASTLQSGVPSRFSGGGSGTDFTLTISSLQPEDVATYYCQRYNSAPLTFGGGTKVEIK
notes: human IgG1 Fc (H1H)
B5: H1H6781P (antibody, human IgG1, V domains shown)
VH: EVQLVESGGDLVQPGESLRLSCTASGFTFNSYEMNWVRQAPGKGLEWVSYISSSGGTKYYVDSVKGRFTISRDNAKKSLYLQMNSLRADDTALYYCARLNGVDVFDIWGQGTMVTVSS
VL: DIQMTQSPSSLSASVGDRVTITCRASQDIFNYLAWFQQKPGKVPELLISAASTLQSGVPSRFSGSGSGTYFTLTISSLQPEDIATYYCQRYNSAPLTFGGGTKVEIK
notes: human IgG1 Fc (H1H)
B6: H1H6958N2 (antibody, human IgG1, V domains shown)
VH: QVQLVESGGGVVQPGRSLRLSCGASGFTFRNYGMQWVRQGPGKGLEWVTLISFDGNDKYYADSVKGRFTISRDNSKNTLFLQMNSLRTEDTAVYYCARGGDFDYWGQGTLVTVSS
VL: DIQMTQSPSSLSASVGDRVTITCRASQDIRKDLGWYQQKPGKAPKRLIYAASSLHSGVPSRFSGSGSGTEFTLTISSLQPEDFATYYCLQHNSYPMYTFGQGTKLEIK
notes: also called H2M6958N2
B7: H1H6976N (antibody, human IgG1, V domains shown)
VH: EVQLLESGGGFVQPGGSLRLSCAASGFTFSSYAMSWVRQAPGKGLEWVSIISSNGRYTYYADSVKGRFTISRDNSKNTLYLQMNSLRAEDTAVYYCATVTGDWFDPWGQGTLVTVSS
VL: DIQLTQSPSFLSASVGDRVTITCWASQDIDISLAWYQQKPGKAPKLLIYAASTLQSGVPSKFSGSGSGTDFTLTISSLQPEDFSTYYCQQLNSYPITFGQGTRLDIK
notes: also called H2M6976N

Legend:
[1] = target: T1, human PRLR on cells (endogenous on …); assay: FACS on T47D cells
[2] = target: T2, hPRLR.mmh (soluble monomeric human PRLR); assay: SPR (Biacore), antibody capture, 37 C
Description: Measurements were conducted on a T200 Biacore instrument. Kinetic association (kₐ) and dissociation (kd) rate constants were determined by processing and fitting the data to a 1:1 binding model using Scrubber 2.0 curve fitting software.

[3] = target: T1, human PRLR on cells (endogenous on …); assay: cell-based or functional assay
[4] = target: T3, monkey macaca fascicularis PRLR …; assay: FACS on HEK293/mfPRLR cells
[5] = target: T4, mouse PRLR construct with an HA tag on …; assay: FACS on HEK293/mPRLR cells
[6] = target: T1, human PRLR on cells (endogenous on …); assay: cell-based or functional assay; remark: listed apart in the source

Row | Binder | FACS Cell Binding (Fold Above Background) [1] [fold] | Kd [2] [nM] | T 1/2 [2] [min] | koff [2] [s⁻¹] | kon [2] [M⁻¹ s⁻¹] | Percent Blocking at 100 nM Antibody (STAT5-Luc reporter) [3] [%] | FACS Cell Binding (Fold Above Background) [4] [fold] | FACS Cell Binding (Fold Above Background) [5] [fold] | % Internalization relative to Control I (T47D cells, imaging) [6] [%] | IC50 of Blocking 5 nM PRL [M] (STAT5-Luc reporter, HEK293/hPRLR/STAT5-Luc cells) [3]
1 | B1 | 43 | 3.02 | 11 | 0.00102 | 339000 | 65 | 32 | 2 | 180 | 
2 | B2 | 41 | 2.2 | 12.4 | 0.000933 | 424000 | 100 | 28 | 2 | 169 | 7.68e-10
3 | B3 | 43 | 1.28 | 16 | 0.000716 | 557000 | 0 | 32 | 4 | 179 | 
4 | B4 | 40 | 1.14 | 24 | 0.000484 | 426000 | 100 | 26 | 2 | 169 | 3.45e-10
5 | B5 | 40 | 0.91 | 37 | 0.000309 | 339000 | 100 | 26 | 1 | 165 | 2.7e-11
6 | B6 | 37 | 3.16 | 8.8 | 0.00131 | 413000 | 100 | 30 | 1 | 169 | 1.98e-10
7 | B7 | 37 | 4.04 | 3.7 | 0.00314 | 777000 | 23 | 29 | 1 | 170 | 
